Reference: patent US20120115880A1 (ST JUDE CHILDREN S RESEARCH HOSPITAL, published 2012)

Tests used:
[1] = biological target: T1, recombinant MDM2 (amino acid residues 1-188) GST fusion protein (UniProt Q00987 1-188); experiment: fluorescence polarization assay with recombinant GST-MDM2 (1-188)
T1 construct: range 1-188; Expressed in E. coli BL21(DE3) from pGEX-4-T-1 and eluted as a GST fusion; GST is placed N-terminally by the usual layout of the vector; not shown: glutathione S-transferase tag encoded by pGEX-4-T-1
Method: (§1) Kd's and Kᵢ's were calculated by fitting the data to a single-site binding mode with variable slope (Y=Bottom+(Top−Bottom)/(1+10̂((LogEC50-X)*HillSlope))) using […] PRISM software.

[2] = biological target: T2, recombinant MDMX (amino acid residues 1-185) GST fusion protein (UniProt O15151 1-185); experiment: fluorescence polarization assay with recombinant GST-MDMX (1-185)
T2 construct: range 1-185; Expressed in E. coli BL21(DE3) from pGEX-4-T-1 and eluted as a GST fusion; GST is placed N-terminally by the usual layout of the vector; also called MDMX-GST; not shown: glutathione S-transferase tag encoded by pGEX-4-T-1
T2 sequence (looked up): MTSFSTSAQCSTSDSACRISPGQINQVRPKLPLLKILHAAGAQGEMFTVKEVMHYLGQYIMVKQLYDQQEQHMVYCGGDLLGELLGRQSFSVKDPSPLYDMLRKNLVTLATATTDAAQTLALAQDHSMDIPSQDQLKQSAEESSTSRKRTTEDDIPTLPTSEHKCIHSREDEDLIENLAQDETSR
Method: as §1

T1 sequence (Q00987 1-188): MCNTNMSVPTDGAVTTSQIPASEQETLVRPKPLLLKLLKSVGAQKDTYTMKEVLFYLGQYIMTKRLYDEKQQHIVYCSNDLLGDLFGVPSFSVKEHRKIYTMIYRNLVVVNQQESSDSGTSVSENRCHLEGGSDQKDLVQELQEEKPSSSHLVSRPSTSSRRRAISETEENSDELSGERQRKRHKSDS

- binding result [1]: no binding
- binding result [2]: no binding
Binder: H-GSGSSQETASDLAKLAPEN-OH
